{
  "source": "patent US20260275312",
  "about": "“CRISPR NUCLEASE POLYPEPTIDES AND GENE EDITING SYSTEMS COMPRISING SUCH” (ARBOR BIOTECHNOLOGIES, INC., published 2026)",
  "binders": {"B1": {"name": "W EMX1-T5 RNA guide ; EMX1-T5 target (W) (ssRNA ; dsDNA)", "RNA": "UAAACUACAGUGGUGCCUGGGUUUCAGCUACCCUGAGUUUCUCAACUCCGUUGAGACUUCCUCAGGUUCAAGCUGAAAAGAGCAUCUGUCCGGAAGGACCACUCCGGGUUAGGGCAGACCCGGCUCUUGGGCUUCCUUGGUCUUUGACUCUGGAGGAAACCUUCCGGCGUGUCGCAAGACAAGAUGUGAGCCUG", "DNA 1": "TAAACTACAGTGGTGCCTGG", "DNA 2": "CCAGGCACCACTGTAGTTTA"}},
  "key": {"[1]": {"target": "T1, Nuclease W E715R (synthetic construct, E715R)", "T1 chain": "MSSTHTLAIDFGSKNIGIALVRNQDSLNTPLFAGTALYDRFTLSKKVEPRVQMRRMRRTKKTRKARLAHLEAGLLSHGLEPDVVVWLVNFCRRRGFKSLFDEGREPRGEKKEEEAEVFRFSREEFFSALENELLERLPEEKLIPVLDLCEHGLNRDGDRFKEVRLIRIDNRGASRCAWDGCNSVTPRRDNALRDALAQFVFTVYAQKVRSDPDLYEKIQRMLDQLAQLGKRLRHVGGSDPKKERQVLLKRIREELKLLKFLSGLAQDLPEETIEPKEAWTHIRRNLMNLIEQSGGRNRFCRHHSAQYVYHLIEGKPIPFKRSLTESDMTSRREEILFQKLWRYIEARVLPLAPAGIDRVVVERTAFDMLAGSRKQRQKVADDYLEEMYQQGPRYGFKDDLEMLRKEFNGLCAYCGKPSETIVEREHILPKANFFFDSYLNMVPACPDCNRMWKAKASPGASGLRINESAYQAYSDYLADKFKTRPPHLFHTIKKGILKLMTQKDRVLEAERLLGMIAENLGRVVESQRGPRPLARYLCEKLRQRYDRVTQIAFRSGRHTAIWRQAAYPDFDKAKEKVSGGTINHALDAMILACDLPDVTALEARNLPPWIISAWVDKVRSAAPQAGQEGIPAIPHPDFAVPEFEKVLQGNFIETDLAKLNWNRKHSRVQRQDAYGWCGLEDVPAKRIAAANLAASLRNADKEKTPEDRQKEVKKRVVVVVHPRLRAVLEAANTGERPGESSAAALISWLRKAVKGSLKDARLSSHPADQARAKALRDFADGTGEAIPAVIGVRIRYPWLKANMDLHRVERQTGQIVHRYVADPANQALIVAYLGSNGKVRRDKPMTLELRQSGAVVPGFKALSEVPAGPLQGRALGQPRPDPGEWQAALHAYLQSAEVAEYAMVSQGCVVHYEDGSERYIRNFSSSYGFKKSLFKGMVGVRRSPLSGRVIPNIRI", "experiment": "cell_activity; HEK293T; PAM AAA", "settings": "tags: N-term SV40 NLS, XTEN linker + C-term nucleoplasmin NLS", "method": "(§1) Approximately 16 hours prior to transfection, 25,000 HEK293T cells in DMEM/10% FBS+Pen/Strep (D10 media) were plated into each well of a 96-well plate. On the day of transfection, the cells were 50-90% confluent. For each well to be transfected, a mixture of Lipofectamine 2000™ (ThermoFisher Scientific) and Opti-MEM™ (ThermoFisher Scientific) was prepared and incubated at room temperature for 5 minutes (Solution 1). After incubation, the Lipofectamine 2000™:Opti-MEM™ mixture was added to a separate mixture containing the CRISPR nuclease plasmid (NLS-tagged), RNA guide plasmid, and Opti-MEM™ (Solution 2). In the case of negative controls, the CRISPR nuclease plasmid was excluded. Solutions 1 and 2 were mixed by pipetting up and down, then incubated at room temperature for 25 minutes. Following incubation, the Solution 1 and 2 mixture was added dropwise to each well of a 96-well plate containing the cells. Approximately 72 hours post transfection, cells were trypsinized by adding TrypLE™ (Thermo Fisher Scientific) to the center of each well and incubating at 37° C. for approximately 5 minutes. D10 media was then added to each well and mixed to resuspend cells. […]\n(§2) Cells were transfected, and samples were prepared for NGS as described in Example 1. Indel ratios, referring to the percentage of NGS reads comprising indels, were calculated for the reference and for each variant. […]"}, "[2]": {"target": "T2, Nuclease W S925R (synthetic construct, S925R)", "T2 chain": "T1 chain with R715E, S925R", "experiment": "cell_activity; HEK293T; PAM AAA", "settings": "tags: N-term SV40 NLS, XTEN linker + C-term nucleoplasmin NLS", "method": "as §1, §2"}},
  "note": "Substitutions are numbered along the chain they refer to.",
  "data": [
    {"binder": "B1", "values": [
      {"measurement": "fold change in indel ratio vs reference", "setting": "[1]", "result": 3.94, "unit": "fold indel vs reference"},
      {"measurement": "fold change in indel ratio vs reference", "setting": "[2]", "result": 3.44, "unit": "fold indel vs reference"}
    ]}
  ]
}
